# Measurements reported in patent US20090148905A1 (published 2009).
# T1: human IL-4 (human, UniProt P05112 25-153)
# T1 construct: E. coli-expressed, made and purified at GSK; also called rhIL-4; recombinant E. coli-expressed human IL-4
# T1 sequence: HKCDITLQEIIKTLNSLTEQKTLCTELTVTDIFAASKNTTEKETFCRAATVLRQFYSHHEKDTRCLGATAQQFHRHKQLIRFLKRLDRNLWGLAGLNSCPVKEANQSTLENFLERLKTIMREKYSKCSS
# Key:
# human IL-13 = molecular target: T2, human IL-13 (human, UniProt P35225 35-146)
# T2 construct: E. coli-expressed, made and purified at GSK; also called rhIL-13; recombinant E. coli-expressed human IL-13
# human IL-4 = molecular target: T1, human IL-4; experiment: Biacore
Kd (human IL-13) [nM],fold less potent than Pascolizumab (human IL-4) [fold],Binder
0.3,,"Anti-human IL-13 monoclonal antibody (also known as 586) (antibody, human IgG1, kappa, humanised, human IgG1/kappa; also called Anti-human IL-13 mAb; anti-IL13 mAb) heavy: not shown light: DIVMTQSPLSLPVTPGEPASISCRSSQNIVHINGNTYLEWYLQKPGQSPRLLIYKISDRFSGVPDRFSGSGSGTDFTLKISRVEADDVGIYYCFQGSHVPWTFGQGTKLEIKRTVAAPSVFIFPPSDEQLKSGTASVVCLLNNFYPREAKVQWKVDNALQSGNSQESVTEQDSKDSTYSLSSTLTLSKADYEKHKVYACEVTHQGLSSPVTKSFNRGEC"
,~2,"PascoL-EPKSC-474 (bispecific antibody, human IgG1, kappa) heavy: not shown light: DIVLTQSPSSLSASVGDRVTITCKASQSVDYDGDSYMNWYQQKPGKAPKLLIYAASNLESGIPSRFSGSGSGTDFTFTISSLQPEDIATYYCQQSNEDPPTFGQGTKVEIKRTVAAPSVFIFPPSDEQLKSGTASVVCLLNNFYPREAKVQWKVDNALQSGNSQESVTEQDSKDSTYSLSSTLTLSKADYEKHKVYACEVTHQGLSSPVTKSFNRGECEPKSCDKTHTCPPCPGSGVQLLESGGGLVQPGGSLRLSCAASGFTFAWYDMGWVRQAPGKGLEWVSSIDWHGEVTYYADSVKGRFTISRDNSKNTLYLQMNSLRAEDTAVYYCATAEDEPGYDYWGQGTLVTVSS"
